Assay in all cases: Sugar chain specificity, competitive ELISA against Biotin-Tn(DT*R)-100
Assay type in all cases: binding

In test [1] the target is T1, 2,3-ST6SL(DT*R)-20 (Compound No. 8) (Homo sapiens, UniProt P15941).
T1 construct: Synthesis of MUC1 Tn20-mer Glycopeptide; made in house; host or cells: chemical solid-phase synthesis (Compound 5), then enzymatic sugar extension
The following applies: glycopeptide 2,3ST6SL (Compound No. 8). On the procedure:
(§1) Such specificity can be expressed by a difference in cross reactivity. The cross reactivity is obtained by a calculation equation of (IC50 for cancer-associated structure 2,3ST/IC50 for sugar chain structure to be compared)×100(%). As used herein, inclusion of specificity refers to a difference of 2 fold or more.
(§2) Ten days after cell fusion, screening of a specific antibody-producing cell was performed. ELISA was used in screening is as follows. To each well of a 384-well microtiter plate (manufactured by Nunc) 35 μl of a Tris buffer (50 mM Tris-HCl, pH 7.5) containing 0.35 μg of an anti-mouse IgG antibody (manufactured by Shibayagi Co., Ltd.) was added to immobilize the antibody at 4° C. for 16 hours. After these wells were washed with 90 μl of a washing solution (physiological saline containing 0.01% Tween 20) once, 200 μl of BLOCK ACE (manufactured by Dainippon Sumitomo Pharma Co., Ltd.) was added, and this was allowed to stand at room temperature for 2 hours for blocking (an anti-mouse IgG antibody solid-phased plate). After each well was washed with 90 μl of a washing solution once, 10 μl of a hybridoma culture supernatant, 10 μl of a buffer A (50 mM Tris buffer containing 0.5% bovine serum albumin, 0.01% Tween 80, 0.05% Proclin 150, and 0.15 M. NaCl, pH 7.4), and 10 μl of a buffer A containing 0.01 ng of Biotin-2,3-ST(DT*R)-20 (Compound No. 16 of Table 1) and 2 ng of Streptavidin-HRP (manufactured by PIERCE) were added to perform a reaction at 4° C. for 16 hours. Then, after each well was washed with 90 μl of a washing solution three times, 25 μl of TMB+-Substrate-Chromogen (manufactured by DAKO) was added to develop a color at room temperature for 30 minutes, 25 μl of 0.05 M sulfuric acid was added to stop the reaction, and absorbance was measured at 450 nm. […] Using a mouse monoclonal antibody isotyping ELISA kit (manufactured by BD Bioscience), a subclass of the antibody was determined and, as a result, an isotype of 1B2 was IgG2a.
(§3) Fifteen (15) μl of a buffer A containing a MUC1 antibody was added to an anti-mouse IgG antibody solid-phased plate and the reaction was allowed to proceed at room temperature for 3 hours. […] Then, after each well was washed with 90 μl of a washing solution three times, 15 μl of TMB+-Substrate-Chromogen (manufactured by DAKO) was added to develop a color at room temperature for 30 minutes, 15 μl of 0.05 M sulfuric acid was added to stop the reaction, and absorbance at 450 nm was measured.

In test [2] the target is T2, 40 (Compound No. 13), non-glycosylated (Homo sapiens, UniProt P15941).
T2 construct: made in house; host or cells: chemical solid-phase synthesis
The following applies: Non-glycosylated peptide (Compound No. 13). The procedure:
as §1, §2, §3

Test [3] deals with T3, ST2-6(DT*R)-20 (Compound No. 10) (Homo sapiens, UniProt P15941).
T3 construct: Synthesis of MUC1 Tn20-mer Glycopeptide; made in house; host or cells: chemical solid-phase synthesis
To be noted: glycopeptide ST2-6 (Compound No. 10). On the procedure: as §1, §2, §3

Test [4] addresses T4, Tn(DT*R)-20 (Compound No. 3) (Homo sapiens, UniProt P15941).
T4 construct: Synthesis of MUC1 Tn20-mer Glycopeptide; made in house; host or cells: chemical solid-phase synthesis
The following applies: glycopeptide Tn (Compound No. 3). On the procedure:
as §1, §2, §3

For test [5], the target named is T5, dST(DT*R)-20 (Compound No. 11) (Homo sapiens, UniProt P15941).
T5 construct: Synthesis of MUC1 Tn20-mer Glycopeptide; made in house; host or cells: chemical solid-phase synthesis with enzymatic sialylation
To be noted: glycopeptide dST (Compound No. 11). The procedure:
as §1, §2, §3

T3 sequence (P15941 136-155): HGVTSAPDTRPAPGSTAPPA
T2 sequence (P15941 136-175): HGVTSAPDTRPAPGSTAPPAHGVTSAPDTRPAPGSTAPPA

B1: 1B2: mouse monoclonal anti-MUC1 antibody, isotype IgG2a, clone from immunization with 2,3-ST(DT*R)-20 conjugated to BSA (antibody, V domains shown)
VH: MEWIWIFLFILSGTAGVQSQVQLQQSGAELARPGASVKLSCKASGYTFTNYGLSWVKQRTGQGLEWIGENHPGSGIIYHNEKFRGKATLTADKSSSTAYVQLSSLTSEDSAVYFCARSSGTRGFAYWGQGTLVTVSA
VL: MKLPVRLLVLMFWIPASSSDVLMTQTPLSLPVSLGDQASISCRSSQSIVHSNGNTYLEWYLQKPGQSPKLLIYKVSNRFSGVPDRFSGSGSGTDFTLKISRVEAEDLGVYYCFQGSHGPWTFGGGTKLEIKRA
modifications: Antibody 1B2 VH sequence; Antibody 1B2 VL sequence
In the case of B1, the “Cross reactivity letting 2,3-ST to be 100%” value was determined as 0.064% in test [1]; 0.13% in test [2]; 0.15% in test [3]; 81% in test [4]; 3.0% in test [5].

Source of the values: US8722856B2, “Anti-MUC1 antibody” (National University Corporation Hokkaido University, priority 2008, dated 2014).
